For 1 protein, pKa results are on record in PMC8953729.

Series [1] addresses Nterm1 (position 1, -----MDHSHH). The series is described as follows: potentiometry.
For a further series, the target named is Tyr11 (position 11, …--). The series is described as follows: potentiometry. Conditions: metal-free peptide.

Usually pKa stands for the negative logarithm of the acid dissociation constant.

B1: Ctr1(1-14), N-terminal 14-residue model peptide of high-affinity copper uptake protein 1 (hCtr1) (Homo sapiens) (peptide)
chain: MDHSHHMGMSYMDS
For B1, the pKa is given as 7.33 in series [1] (298 K, 0.1 mol dm^-3 (KNO3), mononuclear Ag+ complex ([AgLH2] to [AgLH]), Ag+/peptide ratios 1:1, 1:2 and 2:1); 7.63 in series [1] (298.0 ± 0.2 K, 0.10 M (KNO3), none (titration with 0.1 M KOH under argon), metal-free peptide); 7.46 in series [1] (metal-free peptide, cited from earlier work); 9.64 in the series with Tyr11 (position 11, …--) (298.0 ± 0.2 K, 0.10 M (KNO3), none (titration with 0.1 M KOH under argon)); 9.84 with Tyr11 (position 11, …--) (cited from earlier work).
